Laboratory results taken from US7635557B2 (MND Diagnostic Ltd., priority 2003, dated 2009).
Ends that are not written are not given here.

Experiments:
[1] = biological target: T1, Rhinovirus HRV14 3C protease (Human rhinovirus 14, UniProt P03303); conditions: cited from earlier work
T1 construct: the human rhinovirus 14 3C proteinase, cloned and expressed in E. coli; host or cells: E. coli

[2] = biological target: T2, Human Rhinovirus serotype 1A 3C Protease (Human rhinovirus 1A, UniProt P23008); type: biochemical
T2 construct: is used to clone the 3C Protease into the expression vector pET16-b; made in house; host or cells: E. coli BL21-DE3-pLys-S
T2 sequence (P23008 1515-1697 limits assumed): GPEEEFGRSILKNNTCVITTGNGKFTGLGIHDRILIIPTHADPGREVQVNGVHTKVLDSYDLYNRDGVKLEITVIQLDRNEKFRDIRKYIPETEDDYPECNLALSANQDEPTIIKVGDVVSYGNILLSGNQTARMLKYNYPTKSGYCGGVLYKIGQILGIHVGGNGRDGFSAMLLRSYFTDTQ

[3] = biological target: T1, Rhinovirus HRV14 3C protease; type: biochemical

T1 sequence (P03303 1538-1719): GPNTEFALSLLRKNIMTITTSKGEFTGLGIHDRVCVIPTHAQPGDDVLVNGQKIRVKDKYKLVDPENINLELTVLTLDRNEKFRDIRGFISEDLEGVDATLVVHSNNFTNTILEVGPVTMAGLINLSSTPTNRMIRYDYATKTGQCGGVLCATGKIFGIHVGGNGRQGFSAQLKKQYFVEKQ

| Substance | Hydrolysis rate [1] | Relative Hydrolysis rate [1] | Km [2] [µM] | best substrate chosen based on the reaction rates [3] |
| --- | --- | --- | --- | --- |
| KLFAQTQGPYSGNP [VI] | 147 | 0.44 |  |  |
| YRPVVVQGPNTEF [VII] | 37 | 0.11 |  |  |
| KQYFVEKQGQVIAR [VIII] | 1 | 0.003 |  |  |
| MOC-Arg-Ala-Glu-Leu-Gln-Gly-Pro-Tyr-Asp-Lys-DNP-NH2 (RAELQGPYDK; not fully specified; MOC fluorochrome, DNP quencher, C-terminal amide; Human rhinovirus 1A; MOC; fluorochrome) [dimodified decapeptide substrate (7-methoxy coumarin-4-acetic acid fluorochrome and dinitrophenol quencher)] |  |  | 16.8 |  |
| SQTVALTEGLGDELEEY | 0 | 0.0005 |  |  |
| EAIAEEQGLSDYIT [II] | 8 | 0.024 |  |  |
| VPYIERQANDGWFRK [III] | 0 | 0.0005 |  |  |
| RPVVVQGPN |  |  |  | best peptide |
| DSLETLFQGPVYK [I] | 355 | 1.00 |  |  |
